Experimental findings from patent US20230242658A1 (published 2023) are described below.

Read-outs that look alike come from different tables or passages of the source.

Experiment [1] has as its target human PD-L1 on CHO-K1 cells (human, UniProt Q9NZQ7 19-290). The experiment in a line: FACS. Background: Flow cytometry measures light scatter and fluorescence of single cells or particles in a stream.
The target of experiment [2] is T1, human 4-1BB on CHO-K1 cells (human, UniProt Q07011 24-255). The experiment in a line: FACS.
Experiment [3] concerns the target T1, human 4-1BB on CHO-K1 cells. The experiment in a line: FACS blocking of 4-1BBL.
Target sequence in this assay (Q07011 24-255): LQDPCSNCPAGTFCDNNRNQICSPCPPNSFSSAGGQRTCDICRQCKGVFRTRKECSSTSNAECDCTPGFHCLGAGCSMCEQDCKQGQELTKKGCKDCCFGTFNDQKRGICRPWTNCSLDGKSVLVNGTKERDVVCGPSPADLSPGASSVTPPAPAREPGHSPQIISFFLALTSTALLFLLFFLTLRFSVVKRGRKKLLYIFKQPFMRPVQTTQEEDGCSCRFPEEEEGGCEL
The target is the same in experiment [4]. The experiment in a line: FACS. This is another data set of the same source.
The target in experiment [5] is T2, cynomolgus monkey 4-1BB on CHO-K1 cells (cynomolgus monkey).
T2 chain: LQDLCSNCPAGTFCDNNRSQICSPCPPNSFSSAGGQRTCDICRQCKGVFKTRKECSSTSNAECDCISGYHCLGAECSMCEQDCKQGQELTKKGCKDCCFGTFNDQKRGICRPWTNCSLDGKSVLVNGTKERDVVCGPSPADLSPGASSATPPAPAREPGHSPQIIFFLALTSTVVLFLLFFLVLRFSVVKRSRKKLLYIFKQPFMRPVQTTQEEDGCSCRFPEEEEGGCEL
The experiment in a line: FACS; FIG. 12B.

In experiment [6] the target is T1, human 4-1BB on CHO-K1 cells. The experiment in a line: FACS. This is another data set of the same source.
Target sequence in this assay (Q07011 24-255): as the sequence (Q07011 24-255) above
Experiment [7] has the same target. The experiment in a line: FACS blocking of 4-1BBL. The source holds these as a separate data set.
Target sequence in this assay (Q07011 24-255): as the sequence (Q07011 24-255) above
Experiment [8] has as its target T2, cynomolgus monkey 4-1BB on CHO-K1 cells. The experiment in a line: FACS; FIG. 12E.
For experiment [9] the target is unchanged. The experiment in a line: FACS; FIG. 12D.
The target is the same in experiment [10]. The experiment in a line: FACS; FIG. 12F.
The target of experiment [11] is T1, human 4-1BB on CHO-K1 cells. The experiment in a line: FACS. The source holds these as a separate data set.
Target sequence in this assay (Q07011 24-255): as the sequence (Q07011 24-255) above
For experiment [12], the target named is T2, cynomolgus monkey 4-1BB on CHO-K1 cells. The experiment in a line: FACS; FIG. 12A.

Chain of human PD-L1 on CHO-K1 cells (Q9NZQ7 19-290): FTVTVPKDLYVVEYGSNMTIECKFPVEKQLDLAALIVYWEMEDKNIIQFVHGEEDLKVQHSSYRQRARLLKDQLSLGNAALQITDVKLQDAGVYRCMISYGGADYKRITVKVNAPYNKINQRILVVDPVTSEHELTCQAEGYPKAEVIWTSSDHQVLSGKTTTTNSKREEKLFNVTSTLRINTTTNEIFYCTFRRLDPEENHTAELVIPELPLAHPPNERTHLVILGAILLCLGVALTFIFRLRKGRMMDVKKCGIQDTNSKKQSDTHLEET

B1: PR003551 (bispecific antibody)
light: DIQMTQSPSTLSASVGDRVTVTCRASQSIYIWLAWYQQKPGKAPNLLIYKASSLETGVPSRFSGSGSGTEFTLTISSLQPDDFATYYCQQYYGSSRTFGQGTKVEIKRTVAAPSVFIFPPSDEQLKSGTASVVCLLNNFYPREAKVQWKVDNALQSGNSQESVTEQDSKDSTYSLSSTLTLSKADYEKHKVYACEVTHQGLSSPVTKSFNRGEC
heavy: EVQLVESGGGLVQPGGSLRLSCAASGFTFSSYWMSWVRQAPGKGLEWVANIKQEGSEKYYVDSVKGRFTISRDNAKNSLYLQMNSLRAEDTAVYYCARDRAVAGAFDIWGQGTMVTVSSASTKGPSVFPLAPSSKSTSGGTAALGCLVKDYFPEPVTVSWNSGALTSGVHTFPAVLQSSGLYSLSSVVTVPSSSLGTQTYICNVNHKPSNTKVDKKVEPKSCDKTHTCPPCPAPEAAGGPSVFLFPPKPKDTLMISRTPEVTCVVVDVSHEDPEVKFNWYVDGVEVHNAKTKPREEQYNSTYRVVSVLTVLHQDWLNGKEYKCKVSNKALGAPIEKTISKAKGQPREPQVYTLPPSREEMTKNQVSLTCLVKGFYPSDIAVEWESNGQPENNYKTTPPVLDSDGSFFLYSKLTVDKSRWQQGNVFSCSVMHEALHNHYTQKSLSLSPGEPKSSDKTHTPPPPPRTEVQLLESGGGLVQPGGSLRLSCAASGFIFSNFAMTWVRQPPEKGLKWVSSINGSGFNTYYTDSVKGRFTISRDNSRNTLYLQMNRLTAEDTAVYFCAKEGSSETDDHYYNVDVWGQGTTVTVSS
Take B1: the EC50 was 1.29 nM in experiment [1] and 3.15 nM in [2].

B2: PR001764 (antibody, V domains shown)
VH: EVQLLESGGGLVQPGGSLRLSCAASGFTFSSYAMSWVRQAPEKGLEWVSAISGGGGSTYYADSVKGRFTISRDNSKNTLYLQMDSLKAEDTAVYYCAKEGTTETDDYHYNMDVWGQGTTVTVSS
In experiment [3], B2 returned an IC50 of 2.79 nM. Besides, the EC50 in [4] was found to be 0.249 nM; in experiment [5], 5.33 nM.

B3: PR001834 (antibody, V domains shown)
VH: EVQLLESGGGLVQPGGSLRLSCAASGFTFSGYAMTWVRQPPEKGLEWVSSISGSGNNTFYADSVKGRFTISRDNSKNTLYLQMNSLRAEDTAVYYCAKEGTTETDDYHYNMDVWGQGTTVTVSS
As to B3, the EC50 in experiment [6] worked out at 0.449 nM; in experiment [8], 3.46 nM. The molecule further had an IC50 in [7] of 2.93 nM.

B4: PR001780 (antibody, V domains shown)
VH: EVQLLESGGGLIQPGGSLRLSCAASGFTFSSFAMTWVRQAPGKGLEWVSTISGSGDNTYYADSVKGRFTISRDNSKNTLYLQMNSLRAEDTAVYFCAKEDTAVASDYYYNIDVWGQGTTVTVSS
In the case of B4, it took 6.33 nM to reach half-maximal inhibition in experiment [7] (IC50). For the same molecule, the values for the EC50 in experiment [4] and in experiment [9] were 0.708 nM and 2.99 nM, respectively.

B5: PR001776 (antibody, V domains shown)
VH: EVQLLESGGGLVQPGGSLRLSCAASGFTFSSYAMSWVRQAPEKGLEWVSAISSSGGSTYYADSVKGRFTISRDNSKNTLYLQMNSLRAEDTAVYYCAKDGVTTPSYYYYYDMDVWGQGTTVTVSS
In [7], B5 showed an IC50 of 10.9 nM. The EC50 is 2.43 nM in [4] and 18.1 nM in experiment [9].

B6: PR001775 (antibody, V domains shown)
VH: EVQLLESGGGLVQSGGSLRLSCAASGFTFSSYAMSWVRQAPGKGLEWVSAISGSGGSTDYADSVKGRFTISRDNSTNTLYLQMNSLRAEDTAVYYCAKERAYDYSNYVDFDYWGQGTLVTVSS
In experiment [7], B6 yielded an IC50 of 2.4 nM. The EC50 in [4] came out at 0.477 nM; in experiment [9] it was 2.66 nM.

B7: PR001767 (antibody, V domains shown)
VH: EVQLVETGGGLIQPGGSLRLSCAASGFTVSSNYMSWVRQAPGKGLEWVSVIYSDGSTYYADSVKGRFTISRDNSKNTLYLQMNSLRAEDTAVYYCARDRYYGSGNYPTAYYGMDVRGQGTTVTVSS
Take B7: the EC50 worked out at 5.87 nM in experiment [4] and 25 nM in experiment [5].

B8: PR001836 (antibody, V domains shown)
VH: EVQLLESGGGLVQPGGSLRLSCAASGFIFSNFAMTWVRQPPEKGLKWVSSINGSGFNTYYTDSVKGRFTISRDNSRNTLYLQMNRLTAEDTAVYFCAKEGSSETDDHYYNVDVWGQGTTVTVSS
Consider B8, for which the EC50 in experiment [6] stood at 0.28 nM; in experiment [8], 2.41 nM. Moreover, the IC50 in experiment [7] is 2.12 nM.

B9: PR001766 (antibody, V domains shown)
VH: EVQLLESGGGLVQPGGSLRLSCAASGFTFSSYAMSWGRQAPGKGLEWVSSISGSGGSTYYADSVKGRFTISRDNSKNTLYLQMNSLRAEDTAVYYCAKEKTGTTGDYYYDMDVWGQGTTVTVSS
Regarding B9, inhibition in experiment [3] was half-maximal at 4.34 nM (IC50). The EC50 in experiment [4] was found to be 0.399 nM; in experiment [5] it was 4.99 nM.

B10: PR001842 (antibody, V domains shown)
VH: EVQLLESGGGLVQPGGSLRLSCAASGFTFSSYAMSWGRQAPGKGLEWVSAISGSGGSTYYADSVKGRFTISRDNSKNTLYLHMNSLRAEDTAVYYCAKEKVATTGDYYYDMDVWGQGTTVTVSS
For B10, the EC50 came out at 0.537 nM in experiment [6] and 2.29 nM in experiment [10].

B11: PR001758 (antibody, V domains shown)
VH: EVQLLESGGGLVQLGGSLRLSCAASGFTFSRYAMTWVRQAPEKGLEWVSSISGSGDDTYYGDSVKGRFTISRDNSQNTVYLQMNSLRAEDTAVYFCAKEKAGTTGDYYYNVDVWGQGTTVTVSS
With B11, the values for the EC50 in experiment [11] and in [12] were 0.212 nM and 0.575 nM, respectively. In addition, the midpoint of inhibition in experiment [3], the IC50, lay at 3.61 nM.

B12: PR001781 (antibody, V domains shown)
VH: EVQLLESGGGLVQLGGSLRLSCAASGFTFSSYAMTWVRQAPEKGLEWVSSISGSGGNTYYADSVKGRFTISRDNSKNTLYLQMNSLRAEDTAVYYCAKERTGTTGDYYYNVDVWGQGTTVTVSS
B12: the EC50 in [4] amounted to 0.492 nM; in experiment [9], 3.1 nM.

B13: PR001759 (antibody, V domains shown)
VH: EVQLLESGGGLVQPGGSLRLSCAASGFTFSSYAMSWFRQPPETGLQWVSSIGGSGGDTYYADSVKGRFTISRDNSKNTLYLQMNSLRAEDTAVYYCAKEGSNGTDDNYYDVDVWGQGTTVTVSS
As for B13, the results for the EC50 in experiment [11] and in [12] were 0.274 nM and 0.788 nM, respectively. In experiment [3], this molecule registered an IC50 of 2.31 nM.

B14: PR001831 (antibody, V domains shown)
VH: EVQLVESGGGVIQPGGSLRLSCEASGFTFSSYAMSWVRQAPEKGLEWVSSISGSGDSTYYADSVKGRFTISRDNSKNTLYLQMNSLRAEDTAGYHCAKEGSNGTDDYHYDIDVWGQGTSVTVSS
B14 displayed an IC50 in [7] of 4.05 nM. For the same molecule, the EC50 in experiment [8] worked out at 2.58 nM.

B15: PR000701 (bispecific antibody)
chain 1: not shown
chain 2: EVQLVESGGGLVQPGGSLRLSCAASGFTFSSYWMSWVRQAPGKGLEWVANIKQEGSEKYYVDSVKGRFTISRDNAKNSLYLQMNSLRAEDTAVYYCARDRAVAGAFDIWGQGTMVTVSSASTKGPSVFPLAPSSKSTSGGTAALGCLVKDYFPEPVTVSWNSGALTSGVHTFPAVLQSSGLYSLSSVVTVPSSSLGTQTYICNVNHKPSNTKVDKKVEPKSC
chain 3: not shown
With B15, the values for the EC50 in [1] and in experiment [2] were 1.72 nM and 10.2 nM, respectively.

B16: PR001830 (antibody, V domains shown)
VH: EVQLLESGGGLVQPGGSLRLSCTASGFTFSNYAMSWVRQAPEKGLEWVSSISGSGGSTFYADSVKGRFTISRDNSKNTLYLQMNSLRAEDTAVYFCAKEGSSETDDHYYNVDVWGQGTTVTVSS
As for B16, the EC50 in experiment [6] was found to be 0.209 nM; in experiment [8] it was 0.899 nM. Further, the IC50 in experiment [7] was determined as 2.32 nM.

B17: PR001833 (antibody, V domains shown)
VH: EVQLLESGGGLVQPGGSLRLSCAASGFTFSSYAMSWVRQAPEKGLEWVSSISGSGGSTFYADSVKGRFTISRDNSKNTLYLQMNSLRAEDTAVYFCAKEGATETDDYHFNTDVWGQGTTVTVSS
As for B17, the EC50 in experiment [6] was 0.21 nM; in experiment [8], 1.02 nM. In experiment [7], inhibition was half-maximal at 2.31 nM (IC50).

B18: PR001763 (antibody, V domains shown)
VH: EVQLLESGGGLVQPGGSLRLSCTASGFTFSNYAMSWVRQAPEKGLEWVSSISGSGGSTFYADSVKGRFTISRDNSKNTLYLQMNRLTAEDTAVYYCAKEGSNGTDDYHYDIDVWGQGTTVTVSS
With B18, the EC50 in experiment [11] was 0.616 nM; in experiment [5] it was approximately 0.411 nM. The molecule also returned an IC50 in [3] of 4.99 nM.

B19: PR001760 (antibody, V domains shown)
VH: EVQLVESGGGVVQPGGSLRLSCAASGFTFSNYAMTWVRQAPEKGLEWVSSISGSGVSTYYADSVKGRFTISRDNSKNTLYLQMTRLTAEDTAVYFCAKEGSSETDDHYYNVDVWGQGTTVTVSS
For B19, the values for the EC50 in experiment [11] and in experiment [12] were 0.198 nM and 0.443 nM, respectively. Moreover, in experiment [3], the IC50 is 2.05 nM.

As a reminder, the EC50 is the concentration that produces a half-maximal response. As a reminder, the IC50 is the midpoint of a concentration-inhibition curve.
